Assay: yeast display, Sf9 membrane polyspecificity reagent, FACS + sequencing; frameworks hold sequencing errors
Procedure, shortened: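 A synthetic nanobody library was expressed on Saccharomyces cerevisiae BJ5465 by galactose induction for 36–48 hours. The library was stained for 1 hour at 4 °C with 10% biotinylated, detergent-solubilized Sf9 membrane reagent and enriched with streptavidin microbeads before FACS. Low and high (top ~1%) gates were set on anti-HA fluorescence for expression and streptavidin fluorescence for reagent binding, and each polyreactivity label reflects the gate of origin.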

Row | Sequence | polyreactivity (PSR sort gate)
1 | QVQLVESGGGLVQAGGIIRLSCDASGSTFVIYAMGWYRQAPGKERELVAVIDYSDDSTYYADSVKGRFTISRDNAKNTGYLQLNSVKPEVTEVYFCAAYVYYAKGSFDYWGQGTQVTVSS | high polyreactivity
2 | QVQLVESGGGLVQAGGILRFSCAASGRTFKYYAMGWYRQAPGKERELVAAISYNGGSTFYADSVKGRFTISRDNAKNTVYLQLNSLKPEDTAVYYCAAGPRGTGKYYWGQGTQVTVSS | high polyreactivity
3 | QVQLVESGGGLVQAGGILRLICAASGSIFYYNAMGWSRQAPGKERELVAAITKSGTRTNYADSVKGRFTISRDNAKNTVYLQMNSLKPEDTAVYDCAAEDQYYRYVCAYEYWGQGTQVTVSS | high polyreactivity
4 | QVQLVESGGGLVQAGGILRLSCAASARIFTYKAMGWYRQAPGKERELVAAITNGGSTYYADSVKGRFTISRDNAKNTVYLQMNSMKPEDTAVYYCNRVVYRPRYRYGYWGQGTQVTVSS | high polyreactivity
5 | QVQLVESGGGLVQAGGILRLSCAASGFIFAYYAMGWYRQAPGKEREFVAVITSSGGRTYYADSVKGRFTISRDNAKNTVYLQMNSLNPVDTAVYYCATSRGYANKYYYWGQGSQVTVSS | low polyreactivity
6 | QVQLVESGGGLVQAGGILRLSCAASGFIFNRYAMGWSRQSPGKARELVADITGGSTYYADSVKGRFTISRDNAKNTVYLQMNSLKPEDTAVYYCAAYVWRYWHEYDYWGQGTQVTVSS | low polyreactivity
7 | QVQLVESGGGLVQAGGILRLSCAASGFIFRLYAKGWYRQAPGKERGLVAAISSGTSTYYADSVKGRFTISRDNAKNTVYLQMNSLIPEDTAVYYCAARISRYPQDDSDYWGQGTQVTVSS | high polyreactivity
8 | QVQLVESGGGLVQAGGILRLSCAASGFIFTANDMGWYIQAPGKVRELVAAISSGGRTYYADSVKGRFTISRDNAKNSVYFQKNSLKPEDTAVYYCARDLYVRNGQRARYDSWGQGTQVTVSS | high polyreactivity
9 | QVQLVESGGGLVQAGGILRLSCAASGFTFGRYAMGRSRQAPGKEREFVAAISYTGTSTYYADSVKGRFTISRDNAKNTVYLQMNSRNPEDTAVYYCNAKWRSHYTQWSYDYWGQCTQVTVSS | high polyreactivity
10 | QVQLVESGGGLVQAGGILRLSCAASGFTFSDNAMGWYIQAPGKERELVAAISRSGGRTYYADSVKGRFTISRDNAKNTVYLQMNSLKPEDTAVYYCAAYQYGMDYWGQGSQVTVSS | high polyreactivity
11 | QVQLVESGGGLVQAGGILRLSCAASGHIFFYYNMGWYRQAPGKERELVAGITIGGSTNYADSVKGRFTISRDNAKNTVNLQMNSLTPEDTAVYYCAKGGEVSQGYTDEYDYWGLGTQVTVSS | low polyreactivity
12 | QVQLVESGGGLVQAGGILRLSCAASGIIFNTNFMGWYRQAPGKERELVAAISRTNYADSVKGRFTISRDNAKNNVFLEMNSLHPEDTSVYDCIVELQYGRPGGQEFDYWGQGSQVTVSS | low polyreactivity
13 | QVQLVESGGGLVQAGGILRLSCAASGINFLYYAMGWYREAPGKEMELVAAINGSGGNTYYADSVKGRFTISLDNAKNTVYLQMNRLKPEDTAVYYCNADFFVYSYQQWDEYYDYWGQGTQVTVSS | low polyreactivity
14 | QVQLVESGGGLVQAGGILRLSCAASGITFRRSAKGWYRQAPGKERELVAGISYSGGTTYYADSVKGRFTISRDNAKNTVYLQMNSLKAEDTAVYYCAAKRISYTREGYSQYDDWGQGSQVTVSS | high polyreactivity
15 | QVQLVESGGGLVQAGGILRLSCAASGLIFSYNTMGWYRHAPGKERELVAGNTSSGSTYYADSVKGRFTISRDNAKNSVYLQMNSLKPEDTAVYYCAAEWDDGRSWYWYYLVGFEYWGQGTQVTVSS | high polyreactivity
16 | QVQLVESGGGLVQAGGILRLSCAASGLIFTYYAMGWYRQAPWKERELLAAINYSGGSTYYADSVKGRFTISRDNAKNTVYLQMNSLKPEDTAVYYCNAGYGEHPLSGYEYWGQSTQVTVSS | low polyreactivity
17 | QVQLVESGGGLVQAGGILRLSCAASGLSFSWYDMGWYRQAPGKERELVAAITTDGDDTYYADSVKGRFTISRDNAKNTVYLQMNSLKPEDTAVYYCAADSELAIRYPDRDYDSWGQGTQVTVSS | low polyreactivity
18 | QVQLVESGGGLVQAGGILRLSCAASGRIFNGYAMGWYRQAPGKERELVAAITSGGRTYADSVKGRFTISRDNAKNTVYLQMYSLKPEDTAVYYCAADAGRILFSGYDYWGQGTQVTVSS | low polyreactivity
19 | QVQLVESGGGLVQAGGILRLSCAASGRIFYVNAMGWYRQAPGKERELVAAITWIDGSTYYADSVKGRFTISRDNAKNTVYLQMNSLKPEDTAVYYCAAGGYFYSFYYWGQGTQVTVSS | low polyreactivity
20 | QVQLVESGGGLVQAGGILRLSCAASGRIKPRNAMGWYRQAPGKERELVAAISWDGGSTYYADSVKGRFTISRDNAKNTVYLQINSLKPVDTAVYYCNVYVSAGEEDEYWGQGTQVTVSS | low polyreactivity
21 | QVQLVESGGGLVQAGGILRLSCAASGRILDYYAMGWYRQAPGKERELVAAISRSGSDTYYADSVKGRFTISRDNAKNTVYLQMNSLKPEETAVYYCAARWSYRSLARYNYWGQGTQVTVSS | low polyreactivity
22 | QVQLVESGGGLVQAGGILRLSCAASGRSFDRNAMGWYRQAPGKERELVATISSGDTTDYADSVKGRFTISRDNATNTVYLQMNSLKPEDTAGYYITIYNYWGQGTQVTVSS | low polyreactivity

Row | Sequence | polyreactivity (PSR sort gate)
23 | QVQLVESGGGLVQAGGILRLSCAASGRTLDCNAMGWYRQAPGKERELDAAITVTGSSTYYADSVKGRFTISRDNAKNTVYLQMNSLKPEDTAVYYCAKASGGDVRYSYSYRMDYWGQGTQVTVSS | low polyreactivity
24 | QVQLVESGGGLVQAGGILRLSCAASGRTVVSYAMGWYRQQPGKGRELVAVITGGTGNTYYADSVKGRFTISRDNEKNTVYLQMNSLKREDTAVYYCNARGCYYKFRYPLYYWGQGTQVTVSS | high polyreactivity
25 | QVQLVESGGGLVQAGGILRLSCAASGSIFAHYTMGWYRKAPGKERELVAAISGSGGSTYYADSVKGRFTISRDNAKNTVYLQMNSLKPEVTAVYYCNKRYRPVGPYDYWGQGTQVTVSS | high polyreactivity
26 | QVQLVESGGGLVQAGGILRLSCAASGSIFKYYAMGWYRQAPGKERELVADISFGGDSTYYADSVKGRFTISRDNAKNTVYLQMNSLIPEDTAVYYCAAARYFWFVEYDYWGQGTQVTVSS | low polyreactivity
27 | QVQLVESGGGLVQAGGILRLSCAASGSIFWYYARGWYRQARGKEREFVADITFSGGSTYYADSVNGRFTISRDNAKNTVYIQMNSLKPEDTAVYYCARDREPLTPVLGNYWGQGTQVTVSS | low polyreactivity
28 | QVQLVESGGGLVQAGGILRLSCAASGSIIHFYAKGGYREAPGKEWELVAAITSGTSTYYADSVKGRFTISRDNAKNTVYLQMNSLKPDDTAVYYCAAEASHSYYNAYPSYCGSDYWGQGTQVTVSS | low polyreactivity
29 | QVQLVESGGGLVQAGGILRLSCAASGSILTDNAMGWYRQAPGKERELVAAITSSGNTNYADSVKGRFTISRDNAKNTVFLQMNSLKPEDTAVYYCARDLREWGQGTQVTVSS | low polyreactivity
30 | QVQLVESGGGLVQAGGILRLSCAASGSIYGYNAMGSYRQAPGKERELVADITSSGSTYYADSVKGRFTISRDNAKNTVYLQMNSLKPEDTAVYYCAARYFVYYLEVDSWGQGTQVTVSS | low polyreactivity
31 | QVQLVESGGGLVQAGGILRLSCAASGSTFDPNVMGWYRQAPGKERELVAAITWSGGSTSYADSVKGRFTISRDNAKNTVYLQMNSLKPEDTAVYYCAADWHSWRWGYYYWGQGTQVTVSS | low polyreactivity
32 | QVQLVESGGGLVQAGGILRLSCAASGSTFGRYAMGWYRQAPGKVRELVAAISRRGGSTYYADSVKGRFTISRDNAKKTVYLQMYSLKRQDTAVYYCGADDVRTTGCHFDYWGQGTEVTVSS | high polyreactivity
33 | QVQLVESGGGLVQAGGILRLSCAASGSTFPGYAMGWYRQAPGKERELVAAISGNGVITYYADSVKGRFTISRDNAKNTVYLQMNSLKPEDTAVYYCNADRLYWGGYYGLTYWGQGTQVTVSS | low polyreactivity
34 | QVQLVESGGGLVQAGGILRLSCAASGSTFWPYAMGWYRQAPGKERELVATNRGGGTSTYYADSVKGRFTISRDNAKNTVYLQMNSLKPEDTAVYYCAARGFFTGSYPGYYYWGLGTQVTVSS | high polyreactivity
35 | QVQLVESGGGLVQAGGILRLSCAASGSTFYYNTMGWYRQAPGKERELVAAISWSGGSTYYADSVKGRFTISRDNAKTTVYLQINSLKPEDTAVYYSNKLRHISRTLYGYWGQGTQVTVSS | high polyreactivity
36 | QVQLVESGGGLVQAGGILRLSCAASGSTGTYMGSYRQAPGKEREMVAAIDNIGDNTYYADSVKGRFTISRDNAKNTVYLQMNSLKPEDTAVYYCPADFYVYYPWLFEYDYWGQGTQVTVSS | low polyreactivity
37 | QVQLVESGGGLVQAGGILRLSCAASGSTLTSNDMGWYRQAPGKERELFADITWSGGDTYYADSVKGRFTISRDNAKYTVYLQMNSLKPEDTAVYYCAAEDPNYRPFAYGIEYDYWGQGTQVTVSS | low polyreactivity
38 | QVQLVESGGGLVQAGGILRLSCAASGYILYGYAMGWYTQAPGKERELVAAISNDGSTYYADSVKGRFTISRDNAKNTVYLQMNSLKPEDTAVYYCNADAWRKVPHPGTGGRDYWGQGTQVTVSS | high polyreactivity
39 | QVQLVESGGGLVQAGGILRLSCAATGSTFVNNVMGWYRQGPRKESDLFAAISRRATSTRYADSVKGRFTISRDHAKNTVYLQMNSLKPEDTEVYYCAATLYVGVTGYGYWGQGTQVTVSS | high polyreactivity
40 | QVQLVESGGGLVQAGGILRLSCAPSGLILKYYAMGWYRQAPGKEREFVAAITRRGGITYYADSVKGRFTISRDNAKNTVYLQMNSLKPEDTAVYYCAADPKLGSLAYWRYSYPLYDYWGQGTQVTVSS | low polyreactivity
41 | QVQLVESGGGLVQAGGILRLSCAPSGRTLPPNAMGWYRHAPGKERELFAGSTWSGGSTYYADSVKGRFTISRDNAKNTVYLPMNSLKPEVTAVYYCAASRSFPGYGLYYYWGQGTQVTVSS | low polyreactivity
42 | QVQLVESGGGLVQAGGILRLSCASSGITFLTYTMGWYRQAPAKERELVAAISRSGGRTYYADSVKGRFTISRDNEKITVYLLMNSLKPEDTAVYYCDAVSATQDFDYWGQGTQETVSS | high polyreactivity
43 | QVQLVESGGGLVQAGGILRLSCASSGRIFGVNAMGWYRQATGKERELVATISSGGSTYYADSVKGRFTISRDNAKNTVYLQLNSLKPEDTAVYYCAADTRRYYLARYRTDYWGQGTQVTVSS | high polyreactivity

From the nanobody polyreactivity screen of Harvey et al. (2022)
